Test [1] concerns the target T1, human Robo4 expressed endogenously on HUVEC cells (human, UniProt Q8WZ75 28-1007).
T1 sequence: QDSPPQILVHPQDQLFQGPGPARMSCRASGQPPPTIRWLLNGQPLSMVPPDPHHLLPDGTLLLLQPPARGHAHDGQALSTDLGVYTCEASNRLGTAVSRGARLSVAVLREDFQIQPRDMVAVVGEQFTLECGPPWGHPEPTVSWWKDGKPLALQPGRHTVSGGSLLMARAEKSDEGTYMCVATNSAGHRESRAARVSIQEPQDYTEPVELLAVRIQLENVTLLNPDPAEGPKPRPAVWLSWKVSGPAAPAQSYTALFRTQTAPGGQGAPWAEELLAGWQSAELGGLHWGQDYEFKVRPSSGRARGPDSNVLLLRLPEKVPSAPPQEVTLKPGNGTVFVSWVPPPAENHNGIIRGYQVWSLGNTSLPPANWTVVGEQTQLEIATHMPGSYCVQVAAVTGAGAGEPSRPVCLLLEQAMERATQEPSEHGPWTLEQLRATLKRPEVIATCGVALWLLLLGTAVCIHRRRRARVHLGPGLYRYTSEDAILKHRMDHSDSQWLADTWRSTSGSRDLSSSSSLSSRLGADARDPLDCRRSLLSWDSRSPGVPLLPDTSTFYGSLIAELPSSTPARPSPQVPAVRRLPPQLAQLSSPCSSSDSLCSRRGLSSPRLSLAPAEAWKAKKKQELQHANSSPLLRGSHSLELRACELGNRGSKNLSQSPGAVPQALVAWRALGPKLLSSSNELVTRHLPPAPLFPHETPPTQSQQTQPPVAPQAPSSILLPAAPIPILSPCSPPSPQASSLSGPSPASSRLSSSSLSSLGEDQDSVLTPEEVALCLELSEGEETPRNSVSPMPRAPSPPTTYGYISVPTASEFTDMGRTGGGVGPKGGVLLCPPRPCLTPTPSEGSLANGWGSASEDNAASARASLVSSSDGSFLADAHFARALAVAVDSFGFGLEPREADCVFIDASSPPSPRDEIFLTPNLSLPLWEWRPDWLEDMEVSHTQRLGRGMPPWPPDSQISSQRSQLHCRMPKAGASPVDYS
The experiment in a line: FACS on HUVEC cells, Alexa 488 detection.

Test [2] concerns the target T2, murine Robo4 expressed endogenously on MS1 cells (mouse, UniProt Q8C310 28-1012).
T2 construct: whole, on cells
T2 sequence (looked up): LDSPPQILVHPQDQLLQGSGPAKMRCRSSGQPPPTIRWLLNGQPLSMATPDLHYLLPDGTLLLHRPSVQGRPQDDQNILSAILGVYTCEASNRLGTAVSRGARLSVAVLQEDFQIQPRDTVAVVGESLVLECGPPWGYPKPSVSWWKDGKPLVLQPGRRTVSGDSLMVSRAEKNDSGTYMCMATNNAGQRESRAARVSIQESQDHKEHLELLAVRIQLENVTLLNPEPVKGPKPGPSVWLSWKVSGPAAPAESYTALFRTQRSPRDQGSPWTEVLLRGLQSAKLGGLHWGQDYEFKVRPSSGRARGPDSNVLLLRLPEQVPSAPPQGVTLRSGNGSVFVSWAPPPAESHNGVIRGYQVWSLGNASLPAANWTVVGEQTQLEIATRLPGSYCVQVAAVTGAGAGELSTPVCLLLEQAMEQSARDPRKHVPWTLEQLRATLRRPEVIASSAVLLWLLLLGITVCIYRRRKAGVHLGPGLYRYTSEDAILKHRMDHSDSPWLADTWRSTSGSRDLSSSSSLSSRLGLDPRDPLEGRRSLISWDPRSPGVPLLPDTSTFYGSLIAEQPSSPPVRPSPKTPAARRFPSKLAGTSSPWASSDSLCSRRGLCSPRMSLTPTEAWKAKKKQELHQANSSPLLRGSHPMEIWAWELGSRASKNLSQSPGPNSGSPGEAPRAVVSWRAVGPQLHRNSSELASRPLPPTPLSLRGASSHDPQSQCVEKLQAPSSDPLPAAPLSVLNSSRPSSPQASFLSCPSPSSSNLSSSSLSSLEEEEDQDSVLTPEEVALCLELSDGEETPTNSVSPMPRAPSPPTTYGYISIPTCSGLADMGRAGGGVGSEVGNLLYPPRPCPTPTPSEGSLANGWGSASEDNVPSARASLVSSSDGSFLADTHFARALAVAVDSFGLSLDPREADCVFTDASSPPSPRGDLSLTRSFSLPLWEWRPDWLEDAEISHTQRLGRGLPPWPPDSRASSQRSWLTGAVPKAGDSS
The experiment in a line: FACS on MS1 cells, Alexa 488 detection.

B1: anti-Robo4 antibody YW71.22 (full length) (antibody, V domains shown)
VH: EVQLVESGGGLVQPGGSLRLSCAASGFTINGYYIHWVRQAPGKGLEWVGFIYPAGGDTDYADSVKGRFTISADTSKNTAYLQMNSLRAEDTAVYYCARLIGNKFGWSSYGMDYWGQGTLVTVSS
VL: DIQMTQSPSSLSASVGDRVTITCRASQDVSTAVAWYQQKPGKAPKLLIYSASFLYSGVPSRFSGSGSGTDFTLTISSLQPEDFATTYCQQSYTTPPTFGQGTKVEIKR
notes: also called parent antibody
As for B1, the binding result in test [1] and in test [2] was “binds” each time.
